Laboratory results taken from publication doi:10.1101/2020.12.04.20244186.

Target: c-KIT extracellular domain (soluble KIT) (UniProt P10721-2 26-516)
Assay: square wave voltammetry

B1: Fc-labeled scrambled control oligo (Au/Fc-control) (ssDNA)
DNA: TGACGGGAGACTTAAAACGCAAGGGGTGCAGCTATCGCGGAGGCCAAGGGTTCAAGTCGACGGGTAGCTAGGTTGGA
modifications: 5'-disulfide (thiol after TCEP, on gold electrode); 3'-NH2 coupled to ferrocene carboxylic acid
binding result: no binding
